# Test results reported in patent publication US20260216326A1 (PROMETHEUS BIOSCIENCES, published 2026).
# T1: human TL1A (human, UniProt O95150 72-251, limits assumed)
# T1 construct: also called tumor necrosis factor-like cytokine 1A; TNFSF15
# T1 sequence (looked up): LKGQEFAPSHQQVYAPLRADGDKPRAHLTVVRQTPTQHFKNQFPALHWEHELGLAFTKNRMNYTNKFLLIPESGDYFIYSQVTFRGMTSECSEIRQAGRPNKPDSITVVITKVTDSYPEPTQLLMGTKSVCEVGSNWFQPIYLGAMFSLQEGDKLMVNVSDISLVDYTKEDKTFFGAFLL
# Molecular target: T1, human TL1A
# Assay: ELISA titration on plate-coated human TL1A, unpurified culture supernatant
row,Binder,Kd
1,"A185 (antibody, IgG1, V domains shown) VH: QVQLVQSGAEVKKPGASVKVSCKASGFDIQDTYMHWVKQRPGQGLEWIGRIDPASGHTKYDPKFQVRATMTRDTSTSTAYLELSSLRSEDTAVYYCARSGGLPDVWGQGTTVTVSS VL: EIVLTQSPGTLSLSPGERATLSCRASSSVSYMYWYQQKPGQAPRLLIYATSNLASGIPDRFSGSGSGTDFTLTISRLEPEDFAVYYCQQWEGNPRTFGGGTKLEIK",0.056 nM
2,"A193 (antibody, IgG1, V domains shown) VH: EVQLVQSGAEVKKPGASVKVSCKASGFDIQDTYMHWVKQRPGQGLEWIGRIDPASGHTKYDPKFQVRATITTDTSTSTAYLELSSLRSEDTAVYYCARSGGLPDVWGQGTTVTVSS VL: EIVLTQSPGTLSLSPGERATLSCRASSSVSYMYWYQQKPGQAPRPWIYATSNLASGIPDRFSGSGSGTDFTLTISRLEPEDFAVYYCQQWEGNPRTFGGGTKLEIK",0.055 nM
3,"A191 (antibody, IgG1, V domains shown) VH: QVQLVQSGAEVKKPGASVKVSCKASGFDIQDTYMHWVKQRPGQGLEWIGRIDPASGHTKYDPKFQVRATITTDTSTSTAYMELSSLRSEDTAVYYCARSGGLPDVWGQGTTVTVSS VL: EIVLTQSPGTLSLSPGERATLSCRASSSVSYMYWYQQKPGQAPRLLIYATSNLASGIPDRFSGSGSGTDFTLTISRLEPEDFAVYYCQQWEGNPRTFGGGTKLEIK",0.057 nM
4,"A190 (antibody, IgG1, V domains shown) VH: QVQLVQSGAEVKKPGASVKVSCKASGFDIQDTYMHWVKQRPGQGLEWIGRIDPASGHTKYDPKFQVRATITTDTSTSTVYLELSSLRSEDTAVYYCARSGGLPDVWGQGTTVTVSS VL: EIVLTQSPGTLSLSPGERATLSCRASSSVSYMYWYQQKPGQAPRLLIYATSNLASGIPDRFSGSGSGTDFTLTISRLEPEDFAVYYCQQWEGNPRTFGGGTKLEIK",0.057 nM
5,"A186 (antibody, IgG1, V domains shown) VH: QVQLVQSGAEVKKPGASVKVSCKASGFDIQDTYMHWVKQRPGQGLEWIGRIDPASGHTKYDPKFQVRATMTTDTSTSTAYLELSSLRSEDTAVYYCARSGGLPDVWGQGTTVTVSS VL: EIVLTQSPGTLSLSPGERATLSCRASSSVSYMYWYQQKPGQAPRLLIYATSNLASGIPDRFSGSGSGTDFTLTISRLEPEDFAVYYCQQWEGNPRTFGGGTKLEIK",0.067 nM
6,"A187 (antibody, IgG1, V domains shown) VH: QVQLVQSGAEVKKPGASVKVSCKASGFDIQDTYMHWVKQRPGQGLEWIGRIDPASGHTKYDPKFQVRVTITRDTSTSTAYLELSSLRSEDTAVYYCARSGGLPDVWGQGTTVTVSS VL: EIVLTQSPGTLSLSPGERATLSCRASSSVSYMYWYQQKPGQAPRLLIYATSNLASGIPDRFSGSGSGTDFTLTISRLEPEDFAVYYCQQWEGNPRTFGGGTKLEIK",0.056 nM
7,"A188 (antibody, IgG1, V domains shown) VH: QVQLVQSGAEVKKPGASVKVSCKASGFDIQDTYMHWVKQRPGQGLEWIGRIDPASGHTKYDPKFQVRVTITTDTSTSTAYLELSSLRSEDTAVYYCARSGGLPDVWGQGTTVTVSS VL: EIVLTQSPGTLSLSPGERATLSCRASSSVSYMYWYQQKPGQAPRLLIYATSNLASGIPDRFSGSGSGTDFTLTISRLEPEDFAVYYCQQWEGNPRTFGGGTKLEIK",0.063 nM
8,"A192 (antibody, IgG1, V domains shown) VH: QVQLVQSGAEVKKPGASVKVSCKASGFDIQDTYMHWVKQRPGQGLEWIGRIDPASGHTKYDPKFQVRATITTDTSTSTVYMELSSLRSEDTAVYYCARSGGLPDVWGQGTTVTVSS VL: EIVLTQSPGTLSLSPGERATLSCRASSSVSYMYWYQQKPGQAPRLLIYATSNLASGIPDRFSGSGSGTDFTLTISRLEPEDFAVYYCQQWEGNPRTFGGGTKLEIK",0.055 nM
9,"A189 (antibody, IgG1, V domains shown) VH: QVQLVQSGAEVKKPGASVKVSCKASGFDIQDTYMHWVKQRPGQGLEWIGRIDPASGHTKYDPKFQVRVTMTTDTSTSTAYLELSSLRSEDTAVYYCARSGGLPDVWGQGTTVTVSS VL: EIVLTQSPGTLSLSPGERATLSCRASSSVSYMYWYQQKPGQAPRLLIYATSNLASGIPDRFSGSGSGTDFTLTISRLEPEDFAVYYCQQWEGNPRTFGGGTKLEIK",0.076 nM
